Results published in US20230088483A1, “USE OF R[…] GENE DERIVED PROTEIN OR FRAGMENT THEREOF” (priority 2020, published 2023).
Like-named read-outs stand apart in the source and are kept apart here.

Tested on: SARS-CoV-2 (C-Tan-nCoV Wuhan strain 01)
Type: cell-based
Conditions: Vero cells; for Ct value: 100 PFU/well, medicine added 2 h after infection, supernatant at 24 h, qRT-PCR target ORF1a/b, control group Ct 22.6

B1: Novaferon: Recombinant cytokine gene derived protein, an analog of interferon (SEQ ID NO: 1); applicant's product, Genova Biotech (Qingdao) Co., Ltd. (protein)
chain: CNLSQTHSLGSKRTLMLLAQMGKISLFSCLKDRHDFEFPQEEFDGNQFQKAQAISVLHELIQQTFNLFSTKESSAAWDEGLLDKFRTELYRQLNDLEACMMQEVGVEETPLMNADSILAVKKYFQRITLYLMEKKYSPCAWEVVRVEIMRSLSFSTNLQKRLRGKD
modifications: Amino Acid Sequences Synthesized by Chemical Means
Ct value (Novaferon 0.001 ng/mL): 22.645
Ct value (Novaferon 0.01 ng/mL): 22.685
Ct value (Novaferon 0.1 ng/mL): 22.815
Ct value (Novaferon 1 ng/mL): 23.665
Ct value (Novaferon 10 ng/mL): 29.025
Ct value (Novaferon 100 ng/mL): 27.625
cytopathic effect (CPE) (medicine concentration 10 ng/mL): no obvious cytopathic effect
cytopathic effect (CPE) (medicine concentration 100 ng/mL): no obvious cytopathic effect
half maximal inhibitory concentration IC50 for the SARS-CoV-2 in vitro (preliminary calculation from inhibition rates based on Ct values): 1.02 ng/mL
